Assay [1] has as its target purified αVβ3 integrin (UniProt P06756). Briefly: [125I]-T4 radioligand displacement on purified αVβ3, native gel band intensity; SC7312 at 8 µg/ml (figure legend; Example 17 prints 59%).
For assay [2] the target is unchanged. Briefly: [125I]-T4 radioligand displacement on purified αVβ3, native gel band intensity; SC7312 at 4 µg/ml. Background: Loss of bound radioactivity is the signal in a displacement assay; it reports binding, not function.
Assay [3] has the same target. Briefly: [125I]-T4 radioligand displacement on purified αVβ3, native gel band intensity; SC7312 at 1 µg/ml.
For assay [4] the target is unchanged. In words: [125I]-T4 radioligand displacement on purified αVβ3, native gel band intensity; SC7312 at 8 µg/ml.
For assay [5] the target is unchanged. In words: [125I]-T4 radioligand displacement on purified αVβ3, native gel band intensity; SC7312 at 2 µg/ml.
The target is the same in assay [6]. In words: [125I]-T4 radioligand displacement on 2 µg purified αVβ3, native gel band intensity; LM609 at 1 µg/ml.
For assay [7] the target is unchanged. In words: [125I]-T4 radioligand displacement on purified αVβ3, native gel band intensity; LM609 at 8 µg/ml.
For assay [8] the target is unchanged. Briefly: [125I]-T4 radioligand displacement on purified αVβ3, native gel band intensity; LM609 at 2 µg/ml.
The target is the same in assay [9]. In words: [125I]-T4 radioligand displacement on purified αVβ3, native gel band intensity; LM609 at 4 µg/ml.

Chain of UniProt P06756 (P06756 31-1048, form in doubt, chain 1 of 2): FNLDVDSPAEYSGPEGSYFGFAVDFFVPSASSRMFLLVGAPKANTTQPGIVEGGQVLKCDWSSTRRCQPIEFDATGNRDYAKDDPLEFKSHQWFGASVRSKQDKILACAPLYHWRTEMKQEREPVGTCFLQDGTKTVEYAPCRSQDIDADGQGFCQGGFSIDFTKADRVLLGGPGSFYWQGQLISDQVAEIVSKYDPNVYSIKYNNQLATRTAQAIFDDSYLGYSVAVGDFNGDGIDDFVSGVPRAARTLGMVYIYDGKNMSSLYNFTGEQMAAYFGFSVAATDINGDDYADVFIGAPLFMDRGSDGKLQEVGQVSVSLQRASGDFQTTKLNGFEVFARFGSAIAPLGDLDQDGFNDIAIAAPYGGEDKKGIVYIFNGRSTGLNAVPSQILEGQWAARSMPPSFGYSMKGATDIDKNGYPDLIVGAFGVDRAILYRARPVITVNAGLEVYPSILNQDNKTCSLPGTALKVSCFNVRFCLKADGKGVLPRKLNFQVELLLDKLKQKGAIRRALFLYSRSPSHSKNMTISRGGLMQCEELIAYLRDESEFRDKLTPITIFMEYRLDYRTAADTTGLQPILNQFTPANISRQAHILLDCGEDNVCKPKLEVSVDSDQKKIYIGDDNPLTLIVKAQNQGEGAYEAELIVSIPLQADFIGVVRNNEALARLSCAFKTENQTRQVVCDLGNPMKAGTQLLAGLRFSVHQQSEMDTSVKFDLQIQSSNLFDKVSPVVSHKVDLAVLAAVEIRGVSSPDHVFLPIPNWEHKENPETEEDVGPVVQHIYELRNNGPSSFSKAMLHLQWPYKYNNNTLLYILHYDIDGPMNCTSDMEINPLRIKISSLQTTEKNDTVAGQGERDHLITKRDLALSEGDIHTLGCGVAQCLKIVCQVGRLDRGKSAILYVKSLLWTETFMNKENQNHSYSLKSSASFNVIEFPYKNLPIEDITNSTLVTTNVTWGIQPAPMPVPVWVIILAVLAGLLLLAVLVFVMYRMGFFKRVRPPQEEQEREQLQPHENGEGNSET
Chain of UniProt P06756 (P05106 27-788, form in doubt, chain 2 of 2, further chain): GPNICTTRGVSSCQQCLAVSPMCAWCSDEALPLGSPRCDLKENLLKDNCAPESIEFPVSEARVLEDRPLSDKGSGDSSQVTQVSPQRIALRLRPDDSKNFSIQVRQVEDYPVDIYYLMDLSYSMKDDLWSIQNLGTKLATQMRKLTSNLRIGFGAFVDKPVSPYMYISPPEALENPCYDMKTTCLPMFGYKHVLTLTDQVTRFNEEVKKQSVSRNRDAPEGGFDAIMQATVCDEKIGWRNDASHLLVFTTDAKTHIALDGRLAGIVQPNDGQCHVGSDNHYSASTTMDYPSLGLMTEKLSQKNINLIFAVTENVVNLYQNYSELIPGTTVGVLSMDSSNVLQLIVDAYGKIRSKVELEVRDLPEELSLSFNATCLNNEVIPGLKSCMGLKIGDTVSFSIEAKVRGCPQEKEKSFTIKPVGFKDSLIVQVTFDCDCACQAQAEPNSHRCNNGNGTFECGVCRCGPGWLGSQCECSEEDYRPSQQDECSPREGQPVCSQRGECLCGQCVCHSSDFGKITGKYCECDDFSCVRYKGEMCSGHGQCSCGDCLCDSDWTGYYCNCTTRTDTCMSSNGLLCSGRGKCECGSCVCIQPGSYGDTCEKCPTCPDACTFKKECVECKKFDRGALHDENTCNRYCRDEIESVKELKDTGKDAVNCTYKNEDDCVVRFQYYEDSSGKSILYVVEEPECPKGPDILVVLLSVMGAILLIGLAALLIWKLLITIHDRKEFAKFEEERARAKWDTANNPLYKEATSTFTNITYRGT

In the case of monoclonal antibody SC7312 to αVβ3, the percent reduction of T4 binding to αVβ3 with purified αVβ3 integrin [1] worked out at 58%; in the assay with purified αVβ3 integrin [2] it was 47%; with purified αVβ3 integrin [3], 20%; with purified αVβ3 integrin [4] it was 59%; with purified αVβ3 integrin [5] it was 46%.
In the case of monoclonal antibody LM609 to αVβ3, the percent reduction of [125I]T4-αVβ3 complex formation with purified αVβ3 integrin [6] came to 52%. Moreover, the percent reduction of [125I]T4-αVβ3 band intensity in the assay with purified αVβ3 integrin [7] was 81%; with purified αVβ3 integrin [8], 64%; in the assay with purified αVβ3 integrin [9] it was 63%.

Values taken from patent publication US9579300.
